# Measurements taken from IntAct's records for PubMed 22198837.
# B1: Histone chaperone RTT106 (Saccharomyces cerevisiae), P40161 (parent)
# chain: MSKLFLDELPESLSRKIGTVVRVLPSSLEIFEELYKYALNENSNDRSGRHKKPRIDVSSDLLKTDEISETNTIFKLEGVSVLSPLRKKLDLVFYLSNVDGSPVITLLKGNDRELSIYQLNKNIKMASFLPVPEKPNLIYLFMTYTSCEDNKFSEPVVMTLNKENTLNQFKNLGLLDSNVTDFEKCVEYIRKQAILTGFKISNPFVNSTLVDTDAEKINSFHLQCHRGTKEGTLYFLPDHIIFGFKKPILLFDASDIESITYSSITRLTFNASLVTKDGEKYEFSMIDQTEYAKIDDYVKRKQMKDKSMSEELKAKSKSKGQATDGTADQPSILQEATRQMQDEKKAGVFSDDDEENDQNFEAESDLSDGSGQESSDGAEDGEEAEEDDEEDDEEEDKKGQSALNRDNSFASINGQPEQELQYKEFKEPLELEDIPIEIDNDDDEDDEDGSGVEYD
# Variants of: B1
# Conditions: with h3_yeast HHT1, P61830
row,effect of a mutation on the interaction,Variant
1,disrupting interaction strength,T265E
2,disrupting interaction strength,R86A
3,disrupting interaction strength,S80E
